Patent publication US20120122239A1

Key:
[1] = target: human NT-pro B-type natriuretic peptide (HyTest, Turku, Finland; Catalog No. 8NT1) (human); assay: sandwich CMIA, capture 15F11, analyte 86.6 pM
[2] = target: glycosylated human proBNP (HyTest, Turku, Finland; Catalog No. 8GOB2) (human); assay: sandwich CMIA, capture 15F11, analyte 86.6 pM
[3] = target: human pro B-type natriuretic peptide (HyTest, Turku, Finland; Catalog No. 8PRO8) (human); assay: sandwich CMIA, capture 15F11, analyte 86.6 pM
[4] = target: human NT-pro B-type natriuretic peptide (HyTest, Turku, Finland; Catalog No. 8NT1) (human); assay: sandwich CMIA, capture 15C4, analyte 577.4 pM
[5] = target: glycosylated human proBNP (HyTest, Turku, Finland; Catalog No. 8GOB2) (human); assay: sandwich CMIA, capture 15C4, analyte 577.4 pM
[6] = target: human pro B-type natriuretic peptide (HyTest, Turku, Finland; Catalog No. 8PRO8) (human); assay: sandwich CMIA, capture 15C4, analyte 577.4 pM
[7] = target: human NT-pro B-type natriuretic peptide (HyTest, Turku, Finland; Catalog No. 8NT1) (human); assay: sandwich CMIA, capture 15C4, analyte 288.7 pM
[8] = target: glycosylated human proBNP (HyTest, Turku, Finland; Catalog No. 8GOB2) (human); assay: sandwich CMIA, capture 15C4, analyte 288.7 pM
[9] = target: human pro B-type natriuretic peptide (HyTest, Turku, Finland; Catalog No. 8PRO8) (human); assay: sandwich CMIA, capture 15C4, analyte 288.7 pM
[10] = target: human NT-pro B-type natriuretic peptide (HyTest, Turku, Finland; Catalog No. 8NT1) (human); assay: sandwich CMIA, capture 15C4, analyte 43.3 pM
[11] = target: glycosylated human proBNP (HyTest, Turku, Finland; Catalog No. 8GOB2) (human); assay: sandwich CMIA, capture 15C4, analyte 43.3 pM
[12] = target: human pro B-type natriuretic peptide (HyTest, Turku, Finland; Catalog No. 8PRO8) (human); assay: sandwich CMIA, capture 15C4, analyte 43.3 pM
[13] = target: human NT-pro B-type natriuretic peptide (HyTest, Turku, Finland; Catalog No. 8NT1) (human); assay: sandwich CMIA, capture 15F11, analyte 43.3 pM
[14] = target: glycosylated human proBNP (HyTest, Turku, Finland; Catalog No. 8GOB2) (human); assay: sandwich CMIA, capture 15F11, analyte 43.3 pM
[15] = target: human pro B-type natriuretic peptide (HyTest, Turku, Finland; Catalog No. 8PRO8) (human); assay: sandwich CMIA, capture 15F11, analyte 43.3 pM
[16] = target: human NT-pro B-type natriuretic peptide (HyTest, Turku, Finland; Catalog No. 8NT1) (human); assay: sandwich CMIA, capture 15F11, analyte 0.0 pM (blank)
[17] = target: glycosylated human proBNP (HyTest, Turku, Finland; Catalog No. 8GOB2) (human); assay: as above
[18] = target: human pro B-type natriuretic peptide (HyTest, Turku, Finland; Catalog No. 8PRO8) (human); assay: as above
[19] = target: human NT-pro B-type natriuretic peptide (HyTest, Turku, Finland; Catalog No. 8NT1) (human); assay: sandwich CMIA, capture 15C4, analyte 0.0 pM (blank)
[20] = target: glycosylated human proBNP (HyTest, Turku, Finland; Catalog No. 8GOB2) (human); assay: as above
[21] = target: human pro B-type natriuretic peptide (HyTest, Turku, Finland; Catalog No. 8PRO8) (human); assay: as above
[22] = target: human NT-pro B-type natriuretic peptide (HyTest, Turku, Finland; Catalog No. 8NT1) (human); assay: sandwich CMIA, capture 15F11, analyte 577.4 pM
[23] = target: glycosylated human proBNP (HyTest, Turku, Finland; Catalog No. 8GOB2) (human); assay: sandwich CMIA, capture 15F11, analyte 577.4 pM
[24] = target: human pro B-type natriuretic peptide (HyTest, Turku, Finland; Catalog No. 8PRO8) (human); assay: sandwich CMIA, capture 15F11, analyte 577.4 pM
[25] = target: human NT-pro B-type natriuretic peptide (HyTest, Turku, Finland; Catalog No. 8NT1) (human); assay: sandwich CMIA, capture 15C4, analyte 86.6 pM
[26] = target: glycosylated human proBNP (HyTest, Turku, Finland; Catalog No. 8GOB2) (human); assay: sandwich CMIA, capture 15C4, analyte 86.6 pM
[27] = target: human pro B-type natriuretic peptide (HyTest, Turku, Finland; Catalog No. 8PRO8) (human); assay: sandwich CMIA, capture 15C4, analyte 86.6 pM
[28] = target: human NT-pro B-type natriuretic peptide (HyTest, Turku, Finland; Catalog No. 8NT1) (human); assay: sandwich CMIA, capture 15F11, analyte 288.7 pM
[29] = target: glycosylated human proBNP (HyTest, Turku, Finland; Catalog No. 8GOB2) (human); assay: sandwich CMIA, capture 15F11, analyte 288.7 pM
[30] = target: human pro B-type natriuretic peptide (HyTest, Turku, Finland; Catalog No. 8PRO8) (human); assay: sandwich CMIA, capture 15F11, analyte 288.7 pM

Sequence of glycosylated human proBNP (HyTest, Turku, Finland; Catalog No. 8GOB2) (human) (chain, as listed by the source): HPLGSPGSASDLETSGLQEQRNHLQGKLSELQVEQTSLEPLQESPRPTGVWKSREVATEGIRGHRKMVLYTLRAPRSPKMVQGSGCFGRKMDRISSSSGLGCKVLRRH
Sequence of human NT-pro B-type natriuretic peptide (HyTest, Turku, Finland; Catalog No. 8NT1) (human) (chain, as listed by the source): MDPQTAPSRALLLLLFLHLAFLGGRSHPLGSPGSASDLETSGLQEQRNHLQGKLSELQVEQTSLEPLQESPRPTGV

Row | Analyte rlus [1] [rlus] | Analyte rlus [2] [rlus] | Analyte rlus [3] [rlus] | Analyte rlus [4] [rlus] | Analyte rlus [5] [rlus] | Analyte rlus [6] [rlus] | Analyte rlus [7] [rlus] | Analyte rlus [8] [rlus] | Analyte rlus [9] [rlus] | Analyte rlus [10] [rlus] | Analyte rlus [11] [rlus] | Analyte rlus [12] [rlus] | Analyte rlus [13] [rlus] | Analyte rlus [14] [rlus] | Analyte rlus [15] [rlus] | Analyte rlus [16] [rlus] | Analyte rlus [17] [rlus] | Analyte rlus [18] [rlus] | Analyte rlus [19] [rlus] | Analyte rlus [20] [rlus] | Substance | further results
1 | 929 | 886 | 963 | 1370 | 859 | 917 | 1140 | 930 | 945 | 883 | 1010 | 851 | 904 | 899 | 857 | 912 | 912 | 912 | 847 | 847 | anti-human NT proBNP/anti-human proBNP monoclonal antibody 15F11 (HyTest, Turku, Finland) | Analyte rlus [21]: 847 rlus; Analyte rlus [22]: 1010 rlus; Analyte rlus [23]: 953 rlus; Analyte rlus [24]: 897 rlus; Analyte rlus [25]: 998 rlus; Analyte rlus [26]: 835 rlus; Analyte rlus [27]: 1040 rlus; Analyte rlus [28]: 977 rlus; Analyte rlus [29]: 925 rlus; Analyte rlus [30]: 949 rlus
2 | 549 | 505 | 529 | 2180 | 800 | 726 | 1180 | 672 | 607 | 750 | 606 | 686 | 615 | 528 | 589 | 615 | 615 | 615 | 590 | 590 | anti-human NT-proBNP/anti-human proBNP labeled monoclonal antibody 7B5 (HyTest, Turku, Finland) | Analyte rlus [21]: 590 rlus; Analyte rlus [22]: 534 rlus; Analyte rlus [23]: 600 rlus; Analyte rlus [24]: 612 rlus; Analyte rlus [25]: 719 rlus; Analyte rlus [26]: 581 rlus; Analyte rlus [27]: 641 rlus; Analyte rlus [28]: 593 rlus; Analyte rlus [29]: 525 rlus; Analyte rlus [30]: 556 rlus
